# In the supplement of paper PMC10065799, “High-throughput profiling of sequence recognition by tyrosine kinases and SH2 domains using bacterial peptide display” (eLife, 2023):
# Tests used:
# AncSZ = test: phosphorylation enrichment, bacterial display (enrichment ratio); higher = better substrate or ligand; peptides without Tyr show the background
# EPHB1 = EPHB1 (UniProt P54762); test: as above
# EPHB2 = EPHB2 (UniProt P29323); test: as above
# FGFR1 = FGFR1 (UniProt P11362); test: as above
# FGFR3 = FGFR3 (UniProt P22607); test: as above
# Fer (mouse) = test: as above
# Fes = Fes (UniProt P07332); test: as above
# Fyn = Fyn (UniProt P06241); test: as above
# Hck = Hck (UniProt P08631); test: as above
# Jak2 = Jak2 (UniProt O60674); test: as above
# MERTK = MERTK (UniProt Q12866); test: as above
# c-Abl (mouse) = test: as above
# c-Src = test: as above
# Grb2 SH2 = Grb2 SH2 (UniProt P62993); test: SH2 binding enrichment of the phosphorylated peptide, bacterial display (enrichment ratio); higher = better substrate or ligand; peptides without Tyr show the background
# SHP2-C SH2 = test: as above
# c-Src SH2 = test: as above
# 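For SH2 binding enrichment of the phosphorylated peptide, bacterial display in this document: peptide library displayed on the E. coli surface as eCPX fusions, selected cells deep-sequenced, score is each peptide's frequency after selection divided by its frequency in the input.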
# 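For phosphorylation enrichment, bacterial display in this document: 11-residue human phosphosite peptides and single-mutation variants displayed on the E. coli surface, counted by deep sequencing, each peptide's frequency after selection divided by its frequency in the unselected input library; frequency after pTyr selection over input frequency; kinase dosed for 20-30% of maximal phosphorylation in three min.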
# Jak2, sequence (O60674 whole entry, looked up): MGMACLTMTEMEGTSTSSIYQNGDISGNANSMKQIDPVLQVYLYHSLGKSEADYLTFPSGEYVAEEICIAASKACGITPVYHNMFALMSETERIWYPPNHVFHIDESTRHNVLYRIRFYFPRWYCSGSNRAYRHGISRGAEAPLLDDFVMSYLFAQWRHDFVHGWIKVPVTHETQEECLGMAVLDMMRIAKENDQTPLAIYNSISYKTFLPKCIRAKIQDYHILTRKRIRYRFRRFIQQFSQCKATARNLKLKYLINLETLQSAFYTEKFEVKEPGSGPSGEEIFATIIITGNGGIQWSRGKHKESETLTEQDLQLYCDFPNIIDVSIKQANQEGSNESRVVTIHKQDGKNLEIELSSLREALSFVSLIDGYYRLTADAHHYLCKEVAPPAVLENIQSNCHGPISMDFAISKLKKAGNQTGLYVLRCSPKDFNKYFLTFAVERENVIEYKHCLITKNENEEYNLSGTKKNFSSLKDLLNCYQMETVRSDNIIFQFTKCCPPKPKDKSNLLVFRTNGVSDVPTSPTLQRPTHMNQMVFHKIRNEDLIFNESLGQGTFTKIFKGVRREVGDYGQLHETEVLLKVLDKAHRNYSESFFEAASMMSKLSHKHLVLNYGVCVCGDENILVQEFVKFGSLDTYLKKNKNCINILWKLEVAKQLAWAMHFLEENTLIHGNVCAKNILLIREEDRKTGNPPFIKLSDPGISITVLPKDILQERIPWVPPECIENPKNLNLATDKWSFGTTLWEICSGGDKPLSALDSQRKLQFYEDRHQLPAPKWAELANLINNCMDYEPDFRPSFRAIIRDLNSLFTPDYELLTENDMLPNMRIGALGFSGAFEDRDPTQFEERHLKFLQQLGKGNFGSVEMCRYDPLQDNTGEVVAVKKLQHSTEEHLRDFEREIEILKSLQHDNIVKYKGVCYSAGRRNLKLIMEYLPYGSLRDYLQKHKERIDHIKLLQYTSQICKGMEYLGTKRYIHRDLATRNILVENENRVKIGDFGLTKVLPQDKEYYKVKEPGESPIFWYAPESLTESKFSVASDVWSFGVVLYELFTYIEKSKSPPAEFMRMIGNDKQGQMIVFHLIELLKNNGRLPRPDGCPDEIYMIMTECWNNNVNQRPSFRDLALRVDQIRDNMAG
# FGFR3, sequence (P22607 whole entry, looked up): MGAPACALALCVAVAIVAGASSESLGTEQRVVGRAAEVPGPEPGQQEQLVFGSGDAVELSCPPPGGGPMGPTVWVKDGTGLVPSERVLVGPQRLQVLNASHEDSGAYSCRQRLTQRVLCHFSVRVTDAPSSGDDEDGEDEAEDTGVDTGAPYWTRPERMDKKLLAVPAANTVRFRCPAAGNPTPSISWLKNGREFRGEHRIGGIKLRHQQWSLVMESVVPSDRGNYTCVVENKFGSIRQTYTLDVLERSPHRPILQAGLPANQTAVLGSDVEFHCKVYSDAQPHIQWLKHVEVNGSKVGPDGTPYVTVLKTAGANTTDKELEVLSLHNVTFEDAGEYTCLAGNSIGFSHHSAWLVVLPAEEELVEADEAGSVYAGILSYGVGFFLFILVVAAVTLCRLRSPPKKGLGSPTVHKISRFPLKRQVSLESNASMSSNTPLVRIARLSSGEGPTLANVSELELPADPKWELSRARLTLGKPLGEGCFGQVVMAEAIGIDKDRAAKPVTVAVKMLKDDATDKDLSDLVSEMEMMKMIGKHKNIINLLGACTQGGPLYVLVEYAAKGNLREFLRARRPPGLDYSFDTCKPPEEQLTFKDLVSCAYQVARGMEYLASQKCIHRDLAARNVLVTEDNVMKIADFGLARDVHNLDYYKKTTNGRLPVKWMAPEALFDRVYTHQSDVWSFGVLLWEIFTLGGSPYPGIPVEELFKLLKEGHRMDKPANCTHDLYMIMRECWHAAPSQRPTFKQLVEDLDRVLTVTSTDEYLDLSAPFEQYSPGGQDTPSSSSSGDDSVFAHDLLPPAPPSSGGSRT
# MERTK, sequence (Q12866 whole entry, looked up): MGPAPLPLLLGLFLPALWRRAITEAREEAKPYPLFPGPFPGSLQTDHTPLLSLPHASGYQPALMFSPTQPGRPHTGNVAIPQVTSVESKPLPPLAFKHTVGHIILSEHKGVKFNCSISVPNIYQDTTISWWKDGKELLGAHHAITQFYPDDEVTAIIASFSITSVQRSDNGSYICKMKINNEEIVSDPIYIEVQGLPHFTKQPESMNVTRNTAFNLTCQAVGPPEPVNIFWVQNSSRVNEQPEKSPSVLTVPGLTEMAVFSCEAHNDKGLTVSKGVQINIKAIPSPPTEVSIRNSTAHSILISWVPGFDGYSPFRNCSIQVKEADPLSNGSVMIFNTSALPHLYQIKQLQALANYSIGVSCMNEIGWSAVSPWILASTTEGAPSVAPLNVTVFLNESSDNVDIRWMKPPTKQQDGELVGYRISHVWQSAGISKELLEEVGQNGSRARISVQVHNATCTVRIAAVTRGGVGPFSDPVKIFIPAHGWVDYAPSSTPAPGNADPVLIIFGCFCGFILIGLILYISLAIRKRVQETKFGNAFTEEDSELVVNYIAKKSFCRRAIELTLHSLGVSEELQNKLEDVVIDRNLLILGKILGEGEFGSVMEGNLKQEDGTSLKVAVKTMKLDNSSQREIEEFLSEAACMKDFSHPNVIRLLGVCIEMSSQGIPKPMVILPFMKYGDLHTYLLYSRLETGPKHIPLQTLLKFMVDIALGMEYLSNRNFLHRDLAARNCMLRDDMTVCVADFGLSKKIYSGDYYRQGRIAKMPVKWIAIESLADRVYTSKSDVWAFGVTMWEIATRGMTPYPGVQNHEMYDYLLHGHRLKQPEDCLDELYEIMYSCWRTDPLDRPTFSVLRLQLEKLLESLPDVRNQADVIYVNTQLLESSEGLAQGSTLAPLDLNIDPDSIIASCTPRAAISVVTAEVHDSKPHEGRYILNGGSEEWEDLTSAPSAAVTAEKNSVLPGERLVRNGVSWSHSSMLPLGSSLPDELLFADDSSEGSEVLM
# Hck, sequence (P08631 whole entry, looked up): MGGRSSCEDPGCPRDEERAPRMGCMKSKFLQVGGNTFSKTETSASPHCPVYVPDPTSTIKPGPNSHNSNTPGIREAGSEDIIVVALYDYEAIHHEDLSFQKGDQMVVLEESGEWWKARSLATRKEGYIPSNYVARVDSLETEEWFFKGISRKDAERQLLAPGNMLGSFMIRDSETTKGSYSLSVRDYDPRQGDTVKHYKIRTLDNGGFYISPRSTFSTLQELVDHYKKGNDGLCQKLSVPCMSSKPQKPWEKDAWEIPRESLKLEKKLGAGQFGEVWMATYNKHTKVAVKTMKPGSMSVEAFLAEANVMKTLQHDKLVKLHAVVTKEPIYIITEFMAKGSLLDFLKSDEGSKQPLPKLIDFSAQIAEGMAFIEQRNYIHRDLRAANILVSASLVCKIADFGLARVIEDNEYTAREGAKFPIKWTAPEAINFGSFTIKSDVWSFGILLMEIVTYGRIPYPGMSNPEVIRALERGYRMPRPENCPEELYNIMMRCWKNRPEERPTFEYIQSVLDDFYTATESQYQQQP
# FGFR1, sequence (P11362 whole entry, looked up): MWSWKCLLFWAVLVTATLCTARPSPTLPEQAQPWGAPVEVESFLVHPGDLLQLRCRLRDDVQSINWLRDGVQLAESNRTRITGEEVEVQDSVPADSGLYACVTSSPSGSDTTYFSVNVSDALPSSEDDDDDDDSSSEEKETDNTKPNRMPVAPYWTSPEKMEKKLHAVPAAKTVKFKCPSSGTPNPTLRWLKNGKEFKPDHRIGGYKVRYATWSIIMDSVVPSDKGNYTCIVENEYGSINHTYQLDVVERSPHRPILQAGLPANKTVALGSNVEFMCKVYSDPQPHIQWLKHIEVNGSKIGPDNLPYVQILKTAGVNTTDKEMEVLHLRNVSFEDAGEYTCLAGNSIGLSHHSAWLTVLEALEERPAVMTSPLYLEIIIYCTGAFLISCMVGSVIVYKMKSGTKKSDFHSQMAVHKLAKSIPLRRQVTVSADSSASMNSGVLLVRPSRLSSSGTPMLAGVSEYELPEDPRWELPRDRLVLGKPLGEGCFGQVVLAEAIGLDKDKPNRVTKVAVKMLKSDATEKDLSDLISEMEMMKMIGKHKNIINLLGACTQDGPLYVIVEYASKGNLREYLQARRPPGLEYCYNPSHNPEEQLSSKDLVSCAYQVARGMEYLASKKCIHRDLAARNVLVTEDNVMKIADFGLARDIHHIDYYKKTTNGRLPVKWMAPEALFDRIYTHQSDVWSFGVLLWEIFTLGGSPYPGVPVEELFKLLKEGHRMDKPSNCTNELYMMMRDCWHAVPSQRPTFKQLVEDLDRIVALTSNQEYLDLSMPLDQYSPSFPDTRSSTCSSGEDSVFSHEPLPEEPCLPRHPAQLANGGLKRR
# Grb2 SH2, sequence (P62993 whole entry, looked up): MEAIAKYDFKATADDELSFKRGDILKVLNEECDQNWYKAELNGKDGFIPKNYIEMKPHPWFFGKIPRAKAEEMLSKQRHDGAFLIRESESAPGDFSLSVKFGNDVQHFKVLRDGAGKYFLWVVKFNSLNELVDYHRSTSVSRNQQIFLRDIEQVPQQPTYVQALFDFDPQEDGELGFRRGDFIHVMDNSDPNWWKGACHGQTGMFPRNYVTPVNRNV
# Fyn, sequence (P06241 whole entry, looked up): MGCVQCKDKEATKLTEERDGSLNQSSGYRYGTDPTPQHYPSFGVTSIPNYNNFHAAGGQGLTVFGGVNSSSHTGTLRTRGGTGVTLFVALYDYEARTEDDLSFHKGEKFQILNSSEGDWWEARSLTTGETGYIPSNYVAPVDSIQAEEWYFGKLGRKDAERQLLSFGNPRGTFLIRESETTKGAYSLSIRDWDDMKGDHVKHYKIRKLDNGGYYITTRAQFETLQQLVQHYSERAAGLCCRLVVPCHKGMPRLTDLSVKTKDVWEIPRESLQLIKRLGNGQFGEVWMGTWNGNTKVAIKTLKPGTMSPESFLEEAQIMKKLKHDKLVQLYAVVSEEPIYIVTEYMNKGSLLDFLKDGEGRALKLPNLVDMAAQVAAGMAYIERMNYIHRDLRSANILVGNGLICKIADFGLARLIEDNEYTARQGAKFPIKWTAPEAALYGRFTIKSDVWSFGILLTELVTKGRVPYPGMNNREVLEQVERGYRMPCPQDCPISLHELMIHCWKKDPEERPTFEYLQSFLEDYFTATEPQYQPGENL
Sequence,phosphorylation enrichment (AncSZ),phosphorylation enrichment (EPHB1),phosphorylation enrichment (EPHB2),phosphorylation enrichment (FGFR1),phosphorylation enrichment (FGFR3),phosphorylation enrichment (Fer (mouse)),phosphorylation enrichment (Fes),phosphorylation enrichment (Fyn),phosphorylation enrichment (Hck),phosphorylation enrichment (Jak2),phosphorylation enrichment (MERTK),phosphorylation enrichment (c-Abl (mouse)),phosphorylation enrichment (c-Src),SH2 binding enrichment (Grb2 SH2),SH2 binding enrichment (SHP2-C SH2),SH2 binding enrichment (c-Src SH2)
PGVNYYFQVSA,2.15,1.61,1.49,2.98,3.16,0.907,2.14,0.611,1.03,2.79,0.734,1.48,0.692,1.04,0.629,0.561
PIQLFYTRRNT [GHR_Y86],1.18,0.766,0.775,0.982,0.884,0.913,1.13,0.938,0.957,0.713,0.691,0.738,0.919,0.74,0.594,0.492
PLEGEYFTLQI [TP53_Y327_D324E],6.22,4.24,5.04,18.5,15.5,3.01,3,9.83,4.86,5.5,0.967,2.98,7.65,0.347,0.651,0.493
PLFSKYWPNHI [GREB1L_Y1560_R1558S_YF],2.32,1,0.925,0.823,0.724,0.907,1.33,0.805,0.801,0.933,1.13,1.47,1.38,0.917,0.736,0.459
PLLEFYWDIFT [CDAN1_Y713_R714W_YF],0.971,0.833,0.645,0.428,0.94,0.527,1.2,0.448,0.458,1.17,0.284,0.828,0.412,0.926,0.719,0.527
PMQLPHDSTWE [PDGFRB_Y589_Y589H],2.22,0.829,0.776,0.66,1.23,0.737,1.96,0.582,0.78,1.34,0.531,1.61,0.628,0.679,0.555,0.383
PPAPRYHHLAV [LZTR1_Y119_S122L],0.868,0.606,0.514,0.377,0.745,0.491,0.964,0.444,0.71,1.19,0.556,0.664,0.552,1.45,1.36,1.98
PQGVRYIYTID [DCX_Y103],1.73,0.943,0.951,0.726,1.15,1,5.16,4.01,1.6,2.21,0.856,1.37,4.09,0.772,15.4,0.618
PRAGVYPEKDQ [DNM2_Y626_L621P],1.16,0.734,0.622,0.642,0.759,0.658,1.26,0.658,0.662,1.08,0.511,0.865,0.682,0.635,0.917,0.403
PRLLRYLQLDF [ASB10_Y457],1.39,0.995,0.73,0.648,0.873,0.662,1.67,0.692,0.65,1.53,0.701,1.04,0.616,1.27,1.6,1.11
PRLMLYNPTTF [EGFR_Y270_P266R_YF],1.16,0.763,0.811,0.772,1.04,0.848,1.18,0.748,0.618,1.38,0.703,1.12,0.729,0.968,0.631,0.505
PSARTYCYKQE [KLHDC9_Y175],1.14,0.647,0.721,0.454,0.907,0.666,1.29,0.533,0.506,0.762,0.736,0.63,0.439,0.768,0.815,0.643
PSQRRYLYYYS [PTEN_Y174_V175L],1.77,0.616,0.697,0.873,0.937,0.92,1.4,1.04,0.737,1.99,4.1,0.659,0.64,0.84,1.48,1.06
PTQLPYDHKWK [KIT_Y578_E583K],0.725,0.484,0.299,0.58,0.439,0.478,0.677,0.433,0.397,0.626,0.28,0.634,0.425,0.756,0.512,0.437
PVDVAYRRGYF [PLEC_Y2967],0.867,0.385,0.577,0.565,0.588,0.601,0.661,0.642,0.587,0.556,0.399,0.743,0.361,0.876,0.519,0.456
PVGDAYKKKGL [NMNAT1_Y55],0.677,0.501,0.924,0.651,0.624,0.609,0.976,0.522,0.559,0.787,0.874,0.574,0.493,0.831,0.673,0.626
QDDFSYPSRQM [LDLR_Y847_G844D_YF],0.791,0.549,0.575,0.425,0.704,0.492,0.826,0.414,0.575,0.674,0.497,0.609,0.403,0.851,0.892,0.54

Sequence,phosphorylation enrichment (AncSZ),phosphorylation enrichment (EPHB1),phosphorylation enrichment (EPHB2),phosphorylation enrichment (FGFR1),phosphorylation enrichment (FGFR3),phosphorylation enrichment (Fer (mouse)),phosphorylation enrichment (Fes),phosphorylation enrichment (Fyn),phosphorylation enrichment (Hck),phosphorylation enrichment (Jak2),phosphorylation enrichment (MERTK),phosphorylation enrichment (c-Abl (mouse)),phosphorylation enrichment (c-Src),SH2 binding enrichment (Grb2 SH2),SH2 binding enrichment (SHP2-C SH2),SH2 binding enrichment (c-Src SH2)
QDDTVYMGKVT [DCTN1_Y1244],1.96,0.8,0.918,0.789,1.17,2.72,2.4,0.958,1.24,1.31,0.714,1.37,0.917,1.04,0.974,0.649
QDEHGYIFRCF [HSPB1_Y133_S135F],1.75,1.27,0.762,0.912,1.31,0.793,2.15,0.924,0.735,1.6,0.524,1.19,0.661,0.702,0.469,0.566
QDIMAYRGREV [BCL6_Y157],1.1,0.52,0.553,0.565,0.717,0.616,1.04,0.632,0.448,0.937,0.599,0.536,0.531,0.769,0.729,0.447
QFLMKYVWSAS [ABCD1_Y337],1.15,0.582,0.541,0.513,0.759,0.565,1.49,0.3,0.587,1.42,0.528,0.929,0.559,0.677,0.668,0.499
QFRFIYMAVQH [PTPN11_Y515_YF],2.5,1.06,0.704,0.544,1.22,1.3,2.52,0.939,1.42,2.21,0.858,1.73,1.97,0.948,0.635,0.58
QGCGIYKDYYR [PLA2G2D_Y82_S80G],1.69,1.04,0.904,1.1,1.19,0.67,1.59,5.71,3.57,1.21,0.773,1.18,6.8,0.956,0.931,0.497
QGIYGYHHYMQ [UFSP2_Y287],1.6,3.8,8.11,1.32,1.52,13.8,1.31,10.6,8.27,1.36,10.4,5.12,8.3,1.03,1.67,2.15
QHVPDYRQNGY [PCDHGA1_Y890_V894G],0.788,0.484,0.548,0.52,0.578,0.496,0.887,0.523,0.524,0.719,0.493,0.621,0.514,0.889,0.678,0.486
QKKPRYEIRWK [PDGFRB_Y562],1.96,0.928,0.919,0.756,2.06,1.02,1.75,0.895,0.723,1.74,1.16,1.05,0.605,2.77,3,1.64
QLHRKYCLSPR [HJURP_Y445_E444K],0.677,0.523,0.728,0.815,0.581,0.603,0.852,0.545,0.533,0.527,0.491,0.679,0.636,1.09,0.859,0.961
QLQTTYPSSDN [MAX_Y115_N114T],0.773,0.445,0.48,0.433,0.626,0.789,0.752,0.35,0.474,0.853,0.357,0.566,0.556,0.921,0.73,0.448
QMVDMYASSFM [AVPR2_Y124_G122D_YF],1.29,0.992,0.805,0.779,0.923,0.9,1.31,1.35,1.58,1.47,0.707,1.2,2.34,1.07,0.575,0.707
QNTGVYYDLYG [PTPN11_Y62_D61V],2,6.99,5.61,16.3,14.5,3.07,1.49,8.43,7.99,2.61,10.9,1.23,7.18,1.38,0.892,4.65
QPGDICHQTWA [GBA_Y244_Y244C],0.796,0.515,0.45,0.507,0.608,0.462,1.08,0.478,0.337,0.906,0.306,0.741,0.369,0.776,0.603,0.732
QRALLYEDALF [UNC13D_Y56_YF],1.21,10.4,8.85,0.68,0.896,16.1,2.16,1.54,1.45,0.867,4.86,0.878,1.5,0.828,0.573,0.593
QRIYQYIRSRF [DYRK1B_Y273_Q275R],0.887,0.9,0.601,0.677,0.818,0.734,1.17,0.809,1.05,0.817,1.01,1.27,1.16,0.844,0.428,0.369
